Laboratory results published in patent US11844843 (DYNE THERAPEUTICS, dated 2023).
Positions count from the first letter of the chain named. In names and notes the source's numbering stands.

T1: recombinant cynomolgus monkey (Macaca fascicularis) TfR1 (cynomolgus monkey (Macaca fascicularis), UniProt Q5RDH6 87-760 (Pongo abelii entry), limits assumed)
T1 construct: Recombinant protein; also called cTfR1; cyTfR1
T1 chain: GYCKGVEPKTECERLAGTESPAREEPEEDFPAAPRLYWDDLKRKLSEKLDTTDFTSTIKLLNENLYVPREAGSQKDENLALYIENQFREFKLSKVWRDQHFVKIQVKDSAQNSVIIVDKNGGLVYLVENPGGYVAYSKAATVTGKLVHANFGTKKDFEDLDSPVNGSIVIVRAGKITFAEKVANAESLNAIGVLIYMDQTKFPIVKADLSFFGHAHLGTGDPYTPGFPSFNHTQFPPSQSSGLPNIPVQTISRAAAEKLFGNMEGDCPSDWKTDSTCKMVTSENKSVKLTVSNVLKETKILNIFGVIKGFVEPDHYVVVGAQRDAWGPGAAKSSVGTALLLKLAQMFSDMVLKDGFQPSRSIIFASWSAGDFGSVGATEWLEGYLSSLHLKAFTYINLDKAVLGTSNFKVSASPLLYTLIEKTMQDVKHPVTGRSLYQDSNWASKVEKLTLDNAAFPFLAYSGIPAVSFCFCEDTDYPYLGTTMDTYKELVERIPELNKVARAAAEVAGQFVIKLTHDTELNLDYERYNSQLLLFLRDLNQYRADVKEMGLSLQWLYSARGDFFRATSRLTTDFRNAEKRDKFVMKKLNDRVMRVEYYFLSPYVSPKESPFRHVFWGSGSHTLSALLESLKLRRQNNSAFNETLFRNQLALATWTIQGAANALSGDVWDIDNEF

B1: humanized anti-TfR Fab 3M12 VH3/Vκ2 (Fab, V domains shown)
VH: QVQLQESGPGLVKPSQTLSLTCSVTGYSITSGYYWNWIRQPPGKGLEWMGYITFDGANNYNPSLKNRVSISRDTSKNQFSLKLSSVTAEDTATYYCTRSSYDYDVLDYWGQGTTVTVSS
VL: DIQMTQSPSSLSASVGDRVTITCRASQDISNFLNWYQQKPGQPVKLLIYYTSRLHSGVPSRFSGSGSGTDFTLTISSLQPEDFATYFCQQGHTLPYTFGQGTKLEIKR
notes: also called 3M12 (VH3/Vk2)
B2: conjugate of humanized anti-TfR Fab 3M12 VH4/Vκ3 with DMPK-targeting oligonucleotide ASO300 (Fab, V domains shown)
VH: B1 VH with S23T, M49I
VL: B1 VL with F87Y
modifications: oligonucleotide ASO300 conjugated to the Fab via linker; residue and chain not stated
notes: also called 3M12 (VH4/Vk3) conjugate
B3: conjugate of humanized anti-TfR Fab 3M12 VH3/Vκ2 with DMPK-targeting oligonucleotide ASO300 (Fab, V domains shown)
VH: B1 VH
VL: B1 VL
modifications: oligonucleotide ASO300 conjugated to the Fab via linker; residue and chain not stated
notes: also called 3M12 (VH3/Vk2) conjugate
B4: conjugate of humanized anti-TfR Fab 3A4 VH3 (N54S)/Vκ4 with DMPK-targeting oligonucleotide ASO300 (Fab, V domains shown)
VH: EVQLVQSGSELKKPGASVKVSCTASGFNIKDDYMYWVRQPPGKGLEWIGWIDPESGDTEYASKFQDRVTVTADTSTNTAYMELSSLRSEDTAVYYCTLWLRRGLDYWGQGTLVTVSS
VL: DIVMTQSPLSLPVTPGEPASISCRSSKSLLHSNGYTYLFWFQQRPGQSPRLLIYRMSNLASGVPDRFSGSGSGTDFTLKISRVEAEDVGVYYCMQHLEYPFTFGGGTKVEIKR
modifications: oligonucleotide ASO300 conjugated to the Fab via linker; residue and chain not stated
notes: also called 3A4 (VH3-N54S/Vk4) conjugate
B5: conjugate of humanized anti-TfR Fab 3A4 VH3 (N54T)/Vκ4 with DMPK-targeting oligonucleotide ASO300 (Fab, V domains shown)
VH: B4 VH with S55T
VL: B4 VL
modifications: oligonucleotide ASO300 conjugated to the Fab via linker; residue and chain not stated
notes: also called 3A4 (VH3-N54T/Vk4) conjugate

Legend:
[1] = target: T2, recombinant human TfR1 (transferrin receptor protein 1) (human, UniProt P02786 89-760); test: ELISA on hTfR1, unconjugated Fab, % normalized RFUs
T2 construct: Recombinant protein in SPR and ELISA; they were assigned to this molecule; also called hTfR1; huTfR1

[2] = target: T1, recombinant cynomolgus monkey (Macaca …); test: ELISA on plate-coated recombinant cTfR1, fluorescent anti-(H+L) IgG-A488 detection, % normalized RFUs
Protocol: (§1) To measure binding of humanized anti-TfR antibodies to TfR1, ELISAs were conducted. High binding, black, flat bottom, 96 well plates (Corning #3925) were first coated with 100 μL/well of recombinant huTfR1 at 1 μg/mL in PBS and incubated at 4° C. overnight. Wells were emptied and residual liquid was removed. Blocking was conducted by adding 200 μL of 1% BSA (w/w) in PBS to each well. Blocking was allowed to proceed for 2 hours at room temperature on a shaker at 30) rpm. After blocking, liquid was removed and wells were washed three times with 300 μL of TBST. Anti-TfR1 antibodies were then added in 0.5% BSA/TBST in triplicate in an 8 point serial dilution (dilution range 5 μg/mL-5 ng/mL). A positive control and isotype controls were also included on the ELISA plate. The plate was incubated at room temperature on an orbital shaker for 60 minutes at 300 rpm, and the plate was washed three times with 300 μL of TBST. Anti-(H+L)IgG-A488 (1:500) (Invitrogen #A11013) was diluted in 0.5% BSA in TBST, and 100 μL was added to each well. The plate was then allowed to incubate at room temperature for 60 minutes at 300 rpm on orbital shaker. The liquid was removed and the plate was washed four times with 300 μL of TBST. […] Data was recorded and analyzed for $EC50$. […]

[3] = target: T2, recombinant human TfR1 (transferrin …); test: Biacore, d25; TfR1 species not stated
[4] = target: T2, recombinant human TfR1 (transferrin …); test: Biacore, d0; TfR1 species not stated
[5] = target: T2, recombinant human TfR1 (transferrin …); test: Table 14, unconjugated Fab, d0; method not named (values equal ELISA row of Table 13)
[6] = target: T1, recombinant cynomolgus monkey (Macaca …); test: as above
[7] = target: T2, recombinant human TfR1 (transferrin …); test: ELISA, recombinant TfR1 coated, unconjugated Fab (row 'Fab binding affinity ELISA')
[8] = target: T1, recombinant cynomolgus monkey (Macaca …); test: as above
[9] = target: T2, recombinant human TfR1 (transferrin …); test: ELISA on plate-coated recombinant hTfR1, fluorescent anti-(H+L) IgG-A488 detection, % normalized RFUs
Protocol: as §1

[10] = target: T1, recombinant cynomolgus monkey (Macaca …); test: ELISA on cTfR1, unconjugated Fab, % normalized RFUs
[11] = target: T2, recombinant human TfR1 (transferrin …); test: kinetic analysis (Biacore), Table 7; TfR1 species not stated
[12] = target: T2, recombinant human TfR1 (transferrin …); test: Table 14, unconjugated Fab, d9 (after 9 days at 40 C); method not named
[13] = target: T1, recombinant cynomolgus monkey (Macaca …); test: as above
[14] = target: T2, recombinant human TfR1 (transferrin …); test: Table 14, Fab-ASO300 conjugate; method not named
[15] = target: T1, recombinant cynomolgus monkey (Macaca …); test: Table 14, Fab-ASO300 conjugate; method not named
[16] = target: T1, recombinant cynomolgus monkey (Macaca …); test: ELISA on cTfR1, Fab conjugated to DMPK-targeting oligonucleotide, % normalized RFUs
[17] = target: T2, recombinant human TfR1 (transferrin …); test: ELISA on hTfR1, Fab conjugated to DMPK-targeting oligonucleotide, % normalized RFUs
[18] = target: T2, recombinant human TfR1 (transferrin …); test: ELISA, recombinant TfR1 coated, Fab-ASO300 conjugate (row 'Conjugate binding affinity ELISA')
[19] = target: T1, recombinant cynomolgus monkey (Macaca …); test: as above
[20] = target: T1, recombinant cynomolgus monkey (Macaca …); test: ELISA on cTfR1, Fab conjugated to DMPK-targeting oligonucleotide, % normalized RFUs
[21] = target: T2, recombinant human TfR1 (transferrin …); test: ELISA on hTfR1, Fab conjugated to DMPK-targeting oligonucleotide, % normalized RFUs; remark: listed apart in the source

DMPK oligo conjugate binding [14] | DMPK oligo conjugate binding [15] | EC50 [16] | EC50 [17] | EC50 [18] | EC50 [19] | EC50 [20] | EC50 [21] | further results | Binder
– | – | – | – | – | – | – | – | EC50 [1]: 7.2 nM; EC50 [2]: 25.5 nM; Kd [3]: 0.567 nM; Kd [4]: 0.395 nM; Binding affinity [5]: 0.8 nM; Binding affinity [6]: 9.9 nM; EC50 [7]: 0.8 nM; EC50 [8]: 9.9 nM; EC50 [9]: 7.2 nM; EC50 [10]: 25.5 nM; Kd [11]: 0.395 nM; koff [11]: 0.000104 s⁻¹; kon [11]: 264000 M⁻¹ s⁻¹; Binding affinity [12]: 0.98 nM; Binding affinity [13]: 19.5 nM | B1
1.18 nM | 1.85 nM | 2.1 nM | 1.7 nM | 1.7 nM | 2.1 nM | – | – | – | B2
1.14 nM | 2.26 nM | 2.9 nM | 2.2 nM | 2.2 nM | 2.9 nM | – | – | – | B3
2.71 nM | 4.1 nM | – | – | 2.9 nM | 7.8 nM | 5.7 nM | 3.6 nM | – | B4
2.22 nM | 5.12 nM | – | – | 2.8 nM | 4.7 nM | 5.8 nM | 3.3 nM | – | B5
